Source: patent EP0332424A2 (dated 1991)
Each block holds one binder with its values, some of them ahead of it.

Assays:
[1] = target: T1, human carcinoembryonic antigen (human, UniProt P06731 35-685, 125I label (125I-CEA, the tracer in the radioimmunoassay)); experiment: solid phase radioimmunoassay: culture supernatant, 125I-CEA, Sepharose-bound goat anti-human IgG
T1 construct: Used as a 125I-labelled tracer; also called CEA
T1 sequence (looked up): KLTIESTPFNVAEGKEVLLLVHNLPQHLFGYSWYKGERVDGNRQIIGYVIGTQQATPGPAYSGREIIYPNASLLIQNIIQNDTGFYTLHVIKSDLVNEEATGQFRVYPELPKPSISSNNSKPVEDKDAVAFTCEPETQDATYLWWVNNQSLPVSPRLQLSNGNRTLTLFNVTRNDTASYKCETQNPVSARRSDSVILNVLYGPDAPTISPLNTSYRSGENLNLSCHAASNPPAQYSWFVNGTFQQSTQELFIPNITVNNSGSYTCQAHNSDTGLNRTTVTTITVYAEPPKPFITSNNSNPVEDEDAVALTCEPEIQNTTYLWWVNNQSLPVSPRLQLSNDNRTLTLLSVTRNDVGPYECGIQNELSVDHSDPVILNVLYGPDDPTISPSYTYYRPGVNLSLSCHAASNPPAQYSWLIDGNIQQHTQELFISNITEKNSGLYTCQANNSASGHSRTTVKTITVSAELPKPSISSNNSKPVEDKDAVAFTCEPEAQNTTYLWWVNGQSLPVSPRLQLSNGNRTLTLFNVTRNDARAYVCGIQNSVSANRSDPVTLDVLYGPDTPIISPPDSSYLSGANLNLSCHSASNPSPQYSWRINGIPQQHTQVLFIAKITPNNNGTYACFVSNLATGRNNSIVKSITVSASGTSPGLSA

[2] = target: T1, human carcinoembryonic antigen; experiment: affinity comparison by radioimmunoassay and Scatchard analysis; Ka not given

binding result [1]: binds
B1: chimeric antibody XCEM 449 (antibody, V domains shown)
VH: DVQLVESGGGLVQPGGSRKLSCAASGFTFSNFGMHWIRQAPEKGLEWVAYISGGSSTIYYADTVKGRFTISRDNPRNTLFLQMTSLRSEDTAMFYCARDYYANNYWYFDVWGAGTTVTVSS
VL: DIVMTQSQKFMSTSVGDRVSITCKASQNVRTAVAWYQQKPGQSPKALIYLASNRYTGVPDRFTGSGSGTDFTLTITNVQSEDLADYFCLQHWNYPLTFGAGTKLELKR
notes: the one-letter code is converted from the printed three-letter code; also called CEM-chimeric antibody; chimeric CEM antibody

binding result [2]: binds
B2: murine monoclonal antibody of hybridoma CEM 231.6.7 (antibody, V domains shown)
VH: B1 VH
VL: B1 VL
notes: also called murine antibody counterparts; ATCC HB9620
